How the values were obtained:
[1] = target: recombinant human IL-1β (human) (UniProt P01584); assay: yeast surface display, flow cytometry with biotinylated antigen
[2] = target: recombinant cynomolgus IL-1β (cynomolgus) (UniProt P79182); assay: as above
[3] = target: recombinant human IL-1β (human) (UniProt P01584); assay: flow cytometry of yeast-displayed scFv, titration of biotinylated IL-1b, 25 °C, 30 min, mean fluorescence [Parental]
[4] = target: recombinant cynomolgus IL-1β (cynomolgus) (UniProt P79182); assay: as above

Chain of recombinant human IL-1β (human) (P01584 117-269): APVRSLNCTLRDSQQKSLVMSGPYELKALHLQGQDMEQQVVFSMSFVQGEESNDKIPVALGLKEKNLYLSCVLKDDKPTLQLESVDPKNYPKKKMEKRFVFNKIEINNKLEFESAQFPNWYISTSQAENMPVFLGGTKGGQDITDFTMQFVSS
Chain of recombinant cynomolgus IL-1β (cynomolgus) (P79182 117-268 limits assumed): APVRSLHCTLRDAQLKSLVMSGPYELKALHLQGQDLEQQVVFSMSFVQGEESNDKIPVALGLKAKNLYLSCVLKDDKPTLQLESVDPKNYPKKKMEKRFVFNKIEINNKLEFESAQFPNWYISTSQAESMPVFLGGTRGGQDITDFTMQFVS

Kd [1]: 10 to 30 nM
Kd [2]: 10 to 30 nM
EC50 [3]: 15.1 nM
EC50 [4]: 23.5 nM
B1: h1B12.1 scFv displayed on the surface of yeast (scFv, part only; not given: linker, domain order, yeast display partner, V domains shown, not shown: another chain or arm of the molecule; large carriers; small tags and cut ends)
VH: EVQLQESGPGLVKPSETLSLTCTVSGFSLSDYGVSWIRQPPGKGLEWLGLIWGGGDTYYNSPLKSRLTISKDNSKSQVSLKLSSVTAADTAVYYCAKQRTLWGYDLYGMDYWGQGTLVTVSS
VL: DTQVTQSPSSLSASVGDRVTITCITSTDIDVDMNWYQQKPGKPPKLLISQGNTLRPGVPSRFSSSGSGTDFTFTISSLQPEDFATYYCLQSDNLPLTFGQGTKLEIK

From US20140178389A1
